The target in test [1] is T1, HLA-A*01:01 (human), P04439.
T1 chain: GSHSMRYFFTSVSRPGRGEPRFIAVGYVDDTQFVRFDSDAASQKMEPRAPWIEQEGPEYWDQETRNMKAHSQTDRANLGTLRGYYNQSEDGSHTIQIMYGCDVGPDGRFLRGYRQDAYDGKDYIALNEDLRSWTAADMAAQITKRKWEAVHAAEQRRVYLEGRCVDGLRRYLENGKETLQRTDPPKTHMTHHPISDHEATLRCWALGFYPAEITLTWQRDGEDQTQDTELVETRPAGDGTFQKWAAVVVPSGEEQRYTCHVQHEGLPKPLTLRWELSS
The experiment in a line: HLA-binding assay. The following applies: chains peptide; modification not given.

The target in test [2] is T2, HLA-A*02:01 (human), P04439.
T2 chain: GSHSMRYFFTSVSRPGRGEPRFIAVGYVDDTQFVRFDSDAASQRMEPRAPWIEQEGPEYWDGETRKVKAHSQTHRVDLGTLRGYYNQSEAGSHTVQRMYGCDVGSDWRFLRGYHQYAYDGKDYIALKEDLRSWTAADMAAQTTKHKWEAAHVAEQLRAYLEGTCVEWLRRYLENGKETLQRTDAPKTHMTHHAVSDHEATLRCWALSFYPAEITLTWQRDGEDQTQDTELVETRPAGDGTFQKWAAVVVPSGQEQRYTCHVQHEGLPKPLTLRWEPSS
The experiment in a line: HLA-binding assay. The following applies: chains peptide; modification not given.

A word on the IC50: it is the midpoint of a concentration-inhibition curve. Consider QVDYYGLYY [HPV E2 151-159 peptide …], for which the IC50 in test [1] worked out at 18 nM. Molecule KSAIVTLTY [HPV E2 329-337 peptide …] returned an IC50 in test [1] of 11 nM. On to VLLLWITAA [HPV E5 46-54 peptide …], for which the half-inhibitory concentration (IC50) in test [2] was 11 nM.

The record behind these values is patent publication US20240352087A1.
